The series relates to T1, KdpE-MBP (Sinorhizobium fredii CCBAU45436 (SF4)), ORF:2638478e.
T1 sequence: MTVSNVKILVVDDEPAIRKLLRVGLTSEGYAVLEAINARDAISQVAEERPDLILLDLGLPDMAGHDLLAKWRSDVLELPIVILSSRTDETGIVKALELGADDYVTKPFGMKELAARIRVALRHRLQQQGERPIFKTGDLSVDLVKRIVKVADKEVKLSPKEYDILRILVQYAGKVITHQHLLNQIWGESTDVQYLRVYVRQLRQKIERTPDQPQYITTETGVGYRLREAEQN
Nature of the series: EMSA. Conditions: 25 mM Tris-HCl pH 8.0, 0.5 mg/mL BSA, 0.1 mg/mL sonicated salmon sperm DNA, 5% glycerol, 0.05% DDM; 10 uL, 20 C, 30 min; 6% native PAGE.

The results in this text go back to PMC9239096.

Consider “TCCTCCTGCGCCTCTCTCGAACCTTTATGCGGTTCGGAGCCATATTCCTGACAAGATCCATCCACCGCCGCGCCGAACTCGATCGTCGCGCCGGGATGCGCACATCGATCGCGATCACCTGCCGGGCGGCCCGGCGCTGCCTCCAGGTGACGCGCAGTCAGTAGAAACAACGCACAGGGATTACCGACATGGACATTGTCGTTCTCGCAATAGGCATCGTGTTCTTCGCCTTATCGTTTGCCTATGTCCGGGCGTGCAGCAACCTCTAATCGCGGAGCGGAAAGATG (double strand) [Probe1_kdpF]”, for which the binding entry is “no binding”.
